The record followed here is patent publication US20230257454A1 (STAIDSON BEIJING BIOPHARMACEUTICALS, published 2023).

T1: human C5a (source not stated) (human, UniProt P01031 678-751)
T1 sequence: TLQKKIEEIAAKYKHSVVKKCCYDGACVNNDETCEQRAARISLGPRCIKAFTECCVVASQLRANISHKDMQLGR

B1: Cab20 scFv (scFv, V domains shown)
VH: EVQLVESGGGLVQPGGSLKVSCAASGFTFRDYYMQWVRQAPGKGPEWVGLIRNKAIGETAEYAASVKGRFTISRDDSKSIVYLQMSSLKTEDTAVYYCTSRAGPPGLSWGQGVLVTVSS
VL: DIVMIQNPLSLPVTPGEPASISCRSSQSLLHSDGYTYLDWYLQKPGQSPQLLIYGGSNRASGVPDRFSGSGSGTDFTLKISKVEAEDVGVYYCMQHKVLPLTFAGGTKLEIK
B2: Cab29 scFv (scFv, V domains shown)
VH: DMQLVESGGGLVQPGGSLKVSCAASGFTFSDYYMQWVRQAPGKGPEWVGLIRNKAVGGTTQYAASVKGRFTISRDDSKSIVYLEMSSLKTEDTAVYYCVSRAGPPGLSWGQGVLVTVSS
VL: DIVMIQNPLSLSVSLGEPASISCRSSQSLLATDGYEYLDWYLQKPGQSPQILIYGASNRASGVPDRFSGRGSGTDFTLKITKVEAEDVGVYYCLQHKALPPTFGQGTKLEIK
B3: Cab11 scFv (scFv, V domains shown)
VH: EVQLVESGGGLVQPGGSLRVSCAASGFRFSDFYMQWVRQAPGKRPEWVGLIRNKPYGGTAEYAASVKGRFTISRDDSKSVTDLQMSSLKTEDTAIYYCVMRNNGYHWGQGVLVTISS
VL: DAVMTQIPLSLPVTPGEPASISCRSSQSLLHTDGYTYLDWYLQKPGQSPQLLIYGGSNRASGVPDRFSGSGSGTDFTLKISKVEAEDVGVYYCMQHKALPPTFGGGTKLEIK
B4: Cab31 scFv (scFv, V domains shown)
VH: DMQLVESGGGLVQPGGSLKVSCAASGFTFSDYYMQWVRQAPGKGPEWVGLIRNKAVGGTTQYAASVKGRFTISRDDSKSIVYLEMSSLKTEDTAVYYCVSRAGPPGLSWGQGVLVTVSS
VL: DTVMSQIPLSLPVTPGEPASISCRSSQSLLHSDGYTYMDWYLQKPGQSPQLLIYGGSNRASGVPDRFSGSGSGTDFTLKISKVEAEDVGVYYCMQHKVLPPTFGQGTRLEIK
B5: Cab30 scFv (scFv, V domains shown)
VH: DMQLVESGGGLVQPGGSLKVSCAASGFTFSDYYMQWVRQAPGKGPEWVGLIRNKAVGGTTQYAASVKGRFTISRDDSKSIVYLEMSSLKTEDTAVYYCVSRAGPPGLSWGQGVLVTVSS
VL: DIVMTQTPLSLPVTPGEPASISCRSSQSLLHSDGYTYLDWYLQRPGQSPHLLIYGGSNRASGVPDRFSGSGSGTDFTLKISKVEAEDVGVYYCMQHKVLPPTFGQGTKLEIK
B6: Cab06 scFv (scFv, V domains shown)
VH: EVHLVESGGGLVQPGGSLKVSCAASGFIFSDYYMQWVRQAPGKGPEWVGLIRKKVNGGTTEYAASVKGRFTISRDDSKSIVYLQMSSLKIEDTAVYYCVSRAGPPGLTWGQGVLVTISS
VL: DIVMIQNPLSLPVTPGEPASISCRSSQSLLASDGYNYMDWYLQKPGQSPKVLIYGGSNRASGVPDRFSGSGSGTDFTLKITKVEAEDVGIYYCMQHKVLPPTFGQGTKLEIK
B7: Cab09 scFv (scFv, V domains shown)
VH: EVQLVESGGGLVQPGGSLKVSCAASGFIFSDYYMQWVRQAPGKGPEWVGLIRKKVNGGTTEYAASVKGRFTISRDDSKSIAYLQMSSLKIEDTAVYYCVSRAGPPGLTWGQGVLVTISS
VL: DIVMIQTPLSLPVTPGEPASISCRSSQSLLHSDGYTYVDWYLQKPGQSPQILIYGGSNRASGVPDRFSGSGSGTDFTLKITNVEAEDVGVYYCLQHKALPPTFGQGTKLEIK
B8: Cab16 scFv (scFv, V domains shown)
VH: EVHLVESGGGLVQPGGSLKVSCAASGFTFSDYYMQWVRQAPGKGPEWVGLIRNKAIGETTEYAASVKGRFTISRDDSKSIVYLQMSSLKPEDTAVYYCAGRLGPPGLSWGQGVLVTVSS
VL: DAVMTQIPLSLPVTPGEPASISCRSSQSLLHTDGYTYLDWYLQKPGQSPQLLIYGGSNRASGVPDRFSGSGSGTDFTLKISKVEAEDVGVYYCMQHKALPLTFGGGTRLEIK
B9: Cab12 scFv (scFv, V domains shown)
VH: VVQLVESGGGLVQPGGSLKVSCAASGFTFSDYYMQWVRQAPGKGPEWVGLIRNKAIGETTQYAASVKGRFTISRDDSKSIVYLQMSSLKTEDTAVYYCVSRAGPPGLSWGQGVLVTISS
VL: DIVLTQTPLSLPVTPGEPASISCRSSQRLLHSDGYTYMDWYLQKPGQSPQILIYGGSNRASGVPDRFSGSGSGTDFTLKISKVEAEDVGVYYCMQHKALPPTFGQGTKLEIK
B10: Cab28 scFv (scFv, V domains shown)
VH: DMQLVESGGGLVQPGGSLKVSCAASGFTFSDYYMQWVRQAPGKGPEWVGLIRNKAVGGTTQYAASVKGRFTISRDDSKSIVYLEMSSLKTEDTAVYYCVSRAGPPGLSWGQGVLVTVSS
VL: DIVMIQNPLSLPVTPGEPASISCRSSQNLLATDGYTYLDWYLQKPGQSPQVLIYGGSKRASGVPDRFSGSGSGTDFTLKISKVEAEDVGIYYCLQHRALPPTFGQGTKLEIK
B11: Cab27 scFv (scFv, V domains shown)
VH: EVQLVQSGGGLVQPGGSLKVSCAASGFTFRDYYMQWVRQAPGKGPEWVGLIRNKAIGGTTQYAASVKGRFTISRDDSKSIVYLQMSSLKTEDTAVYYCVSRAGPPGLSWGQGVLVTVSS
VL: DAVMTQTPLSLPVTPGEPASISCRSSQSLLASDGYNYIDWYLQRPGQSPKVLIYGGSNRASGVPDRFSGSGSGTYFTLKISKVEAEDVGFYFCLQHRALPPTFGQGTKLEIK
B12: Cab07 scFv (scFv, V domains shown)
VH: DVQLVESGGGLVQPGGSLKVSCAASGFTFSDYYMQWVRQAPGKGPEWVGLIRNKAIGETTEYAASVKGRFTISRDDSKSIVYLQMSSLKTEDTAVYYCVSRAGPPGLSWGQGVLVTISS
VL: DTVMTQIPLSLSVTPGEPASISCRSSQRLLHTDGYTYLDWYHQKPGQSPQLLIYGGSNRASGVPDRFSGSGSVTDFTLKISKMEAEDVGVYYCMQHKALPPTFGGGTKLEIK
B13: Cab14 scFv (scFv, V domains shown)
VH: VVQLVESGGGLVQPGGSLKVSCATSGFTFSDYYMQWVRQAPGKGPEWLGLIRNKAIGGTTQYAASVKGRFTISRDDSKGIAYLQMSSLKTEDTAVYYCVCRAGPPGLSWGQGVLVTVSS
VL: DIELTQTPLSRPVTPGEPASISCRSSQSLLHTDGYTYLDWYLQKPGQSPQLLIYGGSNRASGVPDRFSGSGSGTDFTLKISKVEAEDVGVYYCMQHKALPLTFGGGTKLEIK
B14: Cab02 scFv (scFv, V domains shown)
VH: EVQLVESGGGLVQPGGSLKVSCAASGFIFSDYYMQWVRQAPGKGPEWVGLIRKKVNGGTTEYAASVKGRFTISRDDSKSIAYLQMSSLKIEDTAVYYCVSRAGPPGLTWGQGVLVTISS
VL: DIVMIQTPLSLPVTPGEPASISCRSSQRLLHSDGYTYLDWYLQKPGQSPQLLIYGGSNRASGVPDRFSGSGSGTDFTLKISKVEAEDVGVYYCMQHKALPLTFGGGTKLEIK
B15: Cab08 scFv (scFv, V domains shown)
VH: EVQLVESGGGLIQPGGSLRVSCAASGFTFSDYYLQWVRQAPGKGPEWVGLIRTKRYGGTSEYAASVKGRYTISRDDSKAIAYLQMSSLKTEDTAVYYCVVRIFTGLHWGKGTPVTVSS
VL: DIVMTQTPLSRPVTPGEPASISCRSSQSLLHTDGYTYLDWYLQKPGQSPQLLIYGGSNRASGVPDRFSGSGSGTDFTLKISKVEAEDVGVYYCMQHKALPLTFGGGTKLEIK
B16: Cab10 scFv (scFv, V domains shown)
VH: QVQLVESGGGLVQPGGSLKVSCAASGFIFSDYYMQWVRQAPGKGPEWVGLIRKKVNGGTTEYAASVKGRFTISRDDSKSIVYLQMSSLKIEDTAVYYCVSRAGPPGLTWGQGVLITVSS
VL: DTVMSQIPLSLPVTPGEPASISCRSSQSLLHTDGYIYLDWYLQKPGQSPQLLIYGGSNRASGVPDRFSGSGSGTDFTLKISKVEAEDVGVYYCMQHKALPLTFGGGTKLEIK
B17: Cab22 scFv (scFv, V domains shown)
VH: VVQLVESGGGLVQPGGSLKVSCTASGFIFNDYYMQWVRQAPGKGPEWVGLIRNKANGGTTEYAASVKGRFTISRDDSKSIVYLQMSSLKTEDTAVYFCTGRLGPPGLTWGQGVLVTISS
VL: DAVMTQTPLSLPVTPGEPASISCRSSQSLLASDGYNYIDWYLQRPGQSPKVLIYGGSNRASGVPDRFSGSGSGTYFTLKISKVEAEDVGFYFCLQHRALPPTFGQGTKLEIK
B18: Cab24 scFv (scFv, V domains shown)
VH: VVQLVESGGGLVQPGGSLKVSCAASGFIFSDYYMQWVRQAPGKGPEWVGLIRKKVNGGTTEYAASVKGRFTISRDDSKSIVYLQMSSLKIEDTAVYYCVSRAGPPGLAWGQGVLVTISS
VL: DAVMTQTPLSLPVTPGEPASISCRSSQSLLASDGYNYIDWYLQRPGQSPKVLIYGGSNRASGVPDRFSGSGSGTYFTLKISKVEAEDVGFYFCLQHRALPPTFGQGTKLEIK
B19: Cab23 scFv (scFv, V domains shown)
VH: EVQLVESGGGLVQPGGSLRLSCAASGFTFSDYYIQWVRQAPGKGPEWVGLIRNKAIGGTVEYAASVKGRFTISRDDSKRIAYLQMRSLKTEDTAVYFCTGRVGPPGLTWGQGVLVTISS
VL: DAVMTQTPLSLPVTPGEPASISCRSSQSLLASDGYNYIDWYLQRPGQSPKVLIYGGSNRASGVPDRFSGSGSGTYFTLKISKVEAEDVGFYFCLQHRALPPTFGQGTKLEIK
B20: Cab25 scFv (scFv, V domains shown)
VH: EVQLVESGGGFVQPGGSLKVSCVASGFTFSDYYIQWVRQAPGKGPEWVGLIRNKAVGGTTTYAASVKGRFTISRDDSKSVAYLQMTSLKTEDTAVYFCVSRAGPPGLSWGQGVLVTISS
VL: DAVMTQTPLSLPVTPGEPASISCRSSQSLLASDGYNYIDWYLQRPGQSPKVLIYGGSNRASGVPDRFSGSGSGTYFTLKISKVEAEDVGFYFCLQHRALPPTFGQGTKLEIK
B21: Cab26 scFv (scFv, V domains shown)
VH: EVQLVESGGGLVLPGGSLKVSCAASGFIFSDYYIQWVRQAPGKGPEWVGLIRNKAVGETVQYAASLKGRFTISRDDSKSIAYLQMTSLKTEDTAMYYCVSRAGPPGLTWGQGVLVTISS
VL: DAVMTQTPLSLPVTPGEPASISCRSSQSLLASDGYNYIDWYLQRPGQSPKVLIYGGSNRASGVPDRFSGSGSGTYFTLKISKVEAEDVGFYFCLQHRALPPTFGQGTKLEIK

This assay concerns the target T1, human C5a (source not stated). The assay can be described thus: cell-based or functional assay.
For B1, the ROS IC50 was found to be 0.81 nM. Regarding B2, the ROS IC50 came out at 0.96 nM.

With B3, the ROS IC50 was 1.57 nM.

Consider B4, for which the ROS IC50 was 1.26 nM. The figure for B5 is 1.18 nM.

B6: the ROS IC50 came out at 1.03 nM.

Molecule B7 displayed an ROS IC50 of 1.54 nM. Turning to B8, the ROS IC50 is 0.87 nM. The result for B9 reads 1.22 nM; that for B10, 0.98 nM; that for B11, 1.21 nM.

Molecule B12 had an ROS IC50 of 1.07 nM. In turn, B13 returned an ROS IC50 of 1.2 nM. On to B14, for which the ROS IC50 amounted to 1.67 nM. Consider B15, for which the ROS IC50 was 1.29 nM. B16 returned an ROS IC50 of 2.02 nM. The molecule B17 displayed an ROS IC50 of 0.91 nM.

B18 came in with an ROS IC50 of 1.44 nM. On to B19, for which the ROS IC50 was 0.92 nM.

Regarding B20, the ROS IC50 was 0.54 nM.

Consider B21, for which the ROS IC50 turned out to be 1.13 nM.
